Results reported in patent US20050042213.
Like-named read-outs stand apart in the source and are kept apart here.

How the values were obtained:
[1] = biological target: T1, pro-heparanase (H60), purified recombinant human 60 kDa latent heparanase
T1 chain: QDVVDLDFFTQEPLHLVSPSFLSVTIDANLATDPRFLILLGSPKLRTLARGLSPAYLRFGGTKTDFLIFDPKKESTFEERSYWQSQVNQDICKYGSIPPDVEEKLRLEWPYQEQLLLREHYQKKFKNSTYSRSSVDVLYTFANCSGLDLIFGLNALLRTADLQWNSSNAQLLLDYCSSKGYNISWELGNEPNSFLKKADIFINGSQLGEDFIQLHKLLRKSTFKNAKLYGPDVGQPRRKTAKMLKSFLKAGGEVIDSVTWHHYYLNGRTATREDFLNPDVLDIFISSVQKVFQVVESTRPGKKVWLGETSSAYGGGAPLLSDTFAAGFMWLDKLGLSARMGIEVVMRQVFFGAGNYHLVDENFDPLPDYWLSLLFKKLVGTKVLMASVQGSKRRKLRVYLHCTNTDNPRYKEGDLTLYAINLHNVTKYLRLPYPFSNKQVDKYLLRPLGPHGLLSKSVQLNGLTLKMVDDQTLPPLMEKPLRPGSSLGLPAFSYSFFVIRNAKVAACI

[2] = test system: T2, pro-heparanase (H60), purified recombinant human 60 kDa latent heparanase; remark: listed apart in the source
T2 sequence: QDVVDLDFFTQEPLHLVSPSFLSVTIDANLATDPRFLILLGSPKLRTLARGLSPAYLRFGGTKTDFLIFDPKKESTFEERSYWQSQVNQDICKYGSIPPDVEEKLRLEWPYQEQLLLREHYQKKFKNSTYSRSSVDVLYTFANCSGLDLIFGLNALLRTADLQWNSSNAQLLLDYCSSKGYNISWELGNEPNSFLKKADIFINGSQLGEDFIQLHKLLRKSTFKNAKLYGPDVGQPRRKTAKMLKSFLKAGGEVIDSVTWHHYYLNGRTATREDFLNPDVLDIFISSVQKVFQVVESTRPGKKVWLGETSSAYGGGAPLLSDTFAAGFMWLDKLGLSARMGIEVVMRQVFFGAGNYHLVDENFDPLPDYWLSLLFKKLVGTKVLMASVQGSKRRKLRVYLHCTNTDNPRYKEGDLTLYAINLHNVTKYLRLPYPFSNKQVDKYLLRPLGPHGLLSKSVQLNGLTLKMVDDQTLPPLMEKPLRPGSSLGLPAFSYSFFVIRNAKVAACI

B1: elastase from human neutrophils (Calbiochem, 324681) (protein)
chain: IVGGRRARPHAWPFMVSLQLRGGHFCGATLIAPNFVMSAAHCVANVNVRAVRVVLGAHNLSRREPTRQVFAVQRIFENGYDPVNLLNDIVILQLNGSATINANVQVAQLPAQGRRLGNGVQCLAMGWGLLGRNRGIASVLQELNVTVVTSLCRRSNVCTLVRGRQAGVCFGDSGSPLVCNGLIHGIASFVRGGCASGLYPDAFAPVAQFVNWIDSIIQ
- heparanase activity after treatment (DMB assay) [1]: treatment of the pro heparanase with cathepsin G or elastase activated the H60
- processing of pro-heparanase in vitro (Western blot) [1]: cathepsin G (FIG. 18) and elastase (FIG. 5), both serine proteases, cleave the pro-heparanase in-vitro, at or near the N-terminus of the H45

B2: cathepsin G (Sigma, C4428) (enzyme, UniProt P08311 21-244, looked up, species assumed)
Cathepsin G: IIGGRESRPHSRPYMAYLQIQSPAGQSRCGGFLVREDFVLTAAHCWGSNINVTLGAHNIQRRENTQQHITARRAIRHPQYNQRTIQNDIMLLQLSRRVRRNRNVNPVALPRAQEGLRPGTLCTVAGWGRVSMRRGTDTLREVQLRVQRDRQCLRIFGSYDPRRQICVGDRRERKAAFKGDSGGPLLCNNVAHGIVSYGKSSGVPPEVFTRVSSFLPWIRTTMRS
- heparanase activity after treatment (DMB assay) [2]: treatment of the pro heparanase with cathepsin G or elastase activated the H60
- processing of pro-heparanase in vitro (Western blot) [2]: cathepsin G (FIG. 18) and elastase (FIG. 5), both serine proteases, cleave the pro-heparanase in-vitro, at or near the N-terminus of the H45
